Source: US20110195027A1
Several values for one entry are separate records, joined by “and”; a condition that tells them apart may be missing. Equal values may be shown once.

Legend:
Experiment in all cases: ELISA: antibody coated, supernatant, anti-His-HRP
[1] = target: CD9-ECL2 mutant M4 (human, with rat residues) (UniProt P21926)
[2] = target: CD9-ECL2 mutant M1 (human, with rat residues) (UniProt P21926)
[3] = target: p-Myc-His CD9-ECL2 wild type (human)
p-Myc-His CD9-ECL2 wild type (human), sequence (chain, as listed by the source limits assumed): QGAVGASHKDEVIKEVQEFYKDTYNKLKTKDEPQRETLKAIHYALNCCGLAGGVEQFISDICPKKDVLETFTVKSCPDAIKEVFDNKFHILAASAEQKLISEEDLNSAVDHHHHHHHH

CD9-ECL2 mutant M4 (human, with rat residues), sequence (P21926 other isoform, or with tags, fused parts or gaps mutant): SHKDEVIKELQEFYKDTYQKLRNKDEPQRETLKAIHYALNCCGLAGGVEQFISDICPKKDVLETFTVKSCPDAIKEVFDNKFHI
CD9-ECL2 mutant M1 (human, with rat residues), sequence (P21926 other isoform, or with tags, fused parts or gaps mutant): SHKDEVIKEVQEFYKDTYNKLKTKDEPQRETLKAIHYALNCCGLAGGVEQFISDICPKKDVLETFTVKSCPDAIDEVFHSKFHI

| Substance | OD490 [1] | OD490 [2] | OD490 [3] |
| --- | --- | --- | --- |
| normal mouse IgG (antibody) | 0.04 and 0.047 | 0.046 and 0.056 | 0.044 and 0.053 |
| ALB6 (anti-CD9, Beckman coulter) (antibody) | 0.485 and 0.574 | 0.334 and 0.383 | 0.427 and 0.506 |
| normal human IgG (antibody) | 0.053 | 0.054 | 0.056 |
